Laboratory results from the supplement of paper PMC12042874.
± gives the uncertainty stated by the source.

Assay: amyloid nucleation score (Sup35N fusion, yeast selection) (log enrichment); library NNK3; higher = more nucleation; inactive = no reads after selection
How it was run: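 The nucleation score is a DiMSum log enrichment of output over input reads, centred on the mode score of non-aggregating sequences. Sequences under 100 input reads were excluded, and reads came from Illumina sequencing of plasmid inserts. Psi-negative yeast expressing Sup35N fused to peptides of 20 random codons were induced with 100 μM copper sulfate for 24 hours and grown 7 days at 30°C on medium lacking adenine and uracil. Random libraries had three technical output replicates.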

Amyloid nucleation score, 3.11 ± 0.058:
AFSFPSERVWVWNFHMRDKE

Amyloid nucleation score, 1.93 ± 0.076:
ALALMFVEGCVIYMGIGC

Amyloid nucleation score, 1.71 ± 0.12:
ASATAYSVNLRLKVTVNM

Amyloid nucleation score, -0.73 ± 1.7:
AGNLLARPSLQKGCLLDELP

Amyloid nucleation score, 0.319 ± 0.43:
CCFYRSSWVFKLGEGRVIIP

Amyloid nucleation score, 0.98 ± 0.24:
ALWFIHYGAG

Amyloid nucleation score, -0.396 ± 0.87:
ACNDVIHVASSRDLMGAHPR

Amyloid nucleation score, 0.527 ± 0.26:
AVSAVCSAVCGLMSSSTDMD

Amyloid nucleation score, -0.57 ± 0.93:
AVVVIQRYLAVHCWVFGERI

Amyloid nucleation score, -0.523 ± 0.95:
ADNKLANWSGAVREWEVRRV

Amyloid nucleation score, -0.286 ± 0.77:
CFWFNHSNRRGQFFH

Amyloid nucleation score, 0.502 ± 0.19:
AHGHISCLLTYTAYWYCCV

Amyloid nucleation score, 0.927 ± 0.1:
CCMSSIIVCYCWMYGTTKLM

Amyloid nucleation score, 0.671 ± 0.17:
AILEVLT

Amyloid nucleation score, 1.16 ± 0.099:
CDRTIMRSYDPAL

Amyloid nucleation score, -0.284 ± 0.7:
ALESTMVWLSQRQGRFVHSL

Amyloid nucleation score, 2.94 ± 0.082:
ATRASPMSGTYSCTFKIIFL

Amyloid nucleation score, 2.16 ± 0.065:
ADSMTTGLVHGWCYFCMWFN

Amyloid nucleation score, 1.7 ± 0.1:
AFDTILAEYLCYFLL

Amyloid nucleation score, -0.533 ± 0.4:
CFAYG

Amyloid nucleation score, 2.65 ± 0.062:
CGCCHVVVNSWW

Amyloid nucleation score, -0.027 ± 0.26:
AISPNASTWTACTFYCMDSG

Amyloid nucleation score, 0.015 ± 0.71:
CFDAYIAYLSMRCWYPKNNC

Amyloid nucleation score, 1.25 ± 0.1:
ADNRHIFFIGFQRVLSFSWA

Amyloid nucleation score, 0.244 ± 0.87:
AAGRGWTGEALMHRNAQCDS

Amyloid nucleation score, -0.268 ± 1.1:
CANAYWDVCCCYVFLMGLGG

Amyloid nucleation score, 1.05 ± 0.21:
CFCFLIM

Amyloid nucleation score, -0.977 ± 1.5:
ANNLAFSRGG

Amyloid nucleation score, -0.192 ± 1.3:
APVKLAGLHTSVRARGIGYW

Amyloid nucleation score, 0.29 ± 0.2:
CCGGFIVMQQAGGSPIDGQG

Amyloid nucleation score, 0.287 ± 0.38:
AFAMRMTCSGLVNICHFAWL

Amyloid nucleation score, 1.38 ± 0.1:
CDIISMALEPQVCTEYDLQR

Amyloid nucleation score, -0.395 ± 0.8:
CDMSCMTKSCPPSYPN

Amyloid nucleation score, 0.088 ± 0.62:
AVMVRRYFVDWCRQEVTFHV

Amyloid nucleation score, 1.28 ± 0.12:
CATFFAKLQYNYH

Amyloid nucleation score, 1.18 ± 0.091:
CCFIYECSLRNLSALVDDQR

Amyloid nucleation score, inactive:
ACDTVEDGTSGGHCWVCGDG
ACLLLSDLNY
ACMLNEWRNVVRPYLCLSKN
ACTCDRAGDRLVVWLLDGYL
ACTLDTLFSFVPSHNWSGQK
ACTRWS
ADKWSHGAHDRVVLVLRVCR
ADLGATAAINQKAWVGDQ
AERAWYGGCLNRILLSVCCH
AFFPHELRDMFRSNLYCCYA
AFSFMLACWQRRIAQALAYL
AFTGTDSKF
AFYFRT
AGGCDRYVHPRFLDKRSSWS
AGHSEA
AGKSLLRVQYP
AGQNQVRDGKVIVKACSCMS
AGTSKMNIYSMHAV
AGWCYFASSVLVRTSWSQCA
AGYGSVSRLSMEKMEFNQ
AHCLTRGSVTPCPLGSRAVR
AHRFITMSLERVSTYRGLYV
AICSPTLLDYYFLFKVLPGS
AIRFVNPMFSFWVSNWNYAG
AIVESKPYLRSVL
AIVFGGNAQKSHTHDTGAMG
AIVFNFDYLLYLQNRSNLMH
AIYAHYYRTWVFWYYMVPGC
AKGAMLCTMT
AKIVECM
AKSMVWNGGVWYLFQEYARG
AKTSADYTYVASRTDFGCVN
ALGIYRTIYCVIVFG
ALIHFGIEVKRYICWMQNLV
ALKDGIFFFHA
ALKVYADMIDYLWLRTFMSW
ALLYRERKYSMLVKFVVYRS
ALRARERWLRLPALAWKVMY
ALSNN
ALSVFRGLCVLENFSKISGC
ALTHHVVYLMAGKNVTTS
ALTLMCFSVLGFYYVVMYCF
ALVRGIVSTPDSRM
ALVWFENVSVQELQWIKLTS
AMEIRNVQELSIGPGNWMET
AMLLCTYFRKAVYLNAK
ANDVISYTFFLSEERG
ANNPLLG
ANTFKVWPKDICAGTVYM
ANVWPISPLSGGVRLWMFGR
ANWIVGC
ANWVVVLLNRQASLGRFAYV
APGCGTNLGMIFALGWALWR
APIVKL
APLMTYMVMTFMWDSKELPD
ARHVENSAKGFVGYLRRMHV
ARLETHCFMRRRGQF
ARLVYFFLYGLSCRMHCLCW
ARMLSVYSSESQCVTPGWCC
ARSARGLGQRYLLYMYCLWL
ARSDGA
ARVLDAWSYRVARKNLWESL
ASFKFGG
ASGDLAGSKLVSYRVATLIN
ASLISILLALDMSMGLSLEP
ASLVKSHDHMRASHLGGLHK
ASVACLAFP
ASWKLITCQNSAFR
ATAPYDTVCRLYCLSWPPRS
ATNLWR
ATRTNYCACPLLMARWMSVL
ATSEYWILLVFYLCDIAQVS
ATTNKLIYSHMVGKMLTSSF
AVGNCSSWGYGSSTLP
AVIRFCPGRNSESDSRAHRP
AVLVDSWRWERFYFMTTIKT
AVNYMYSQSMKIVRDCFVIV
AVRSFLTWISMN
AVTCVDSWMRDTG
AVVFCVSEYYQQKRYLNSSQ
AVYSWCARTYSILSTLRGEF
AWPIIRFYIQRYLWIVRGRG
AWQYVGMISFM
AYAIGHEDCEVYQLLVKLLG
AYKAAYAVWCVIINGGLF
AYKYVTVCLVDSSVLTSNRG
AYRLTLCLPSWVWL
CAHVSFKLVFSINWWSNLLN
CAISLVRLTVQSEEIRVDRN
CALSHYGKFDYYPSFVSFKQ
CANFRV
CAQMPCMLENGP
CASPSGFSSQGVTWFVEV
CAWVHIS
CAYPVKKCMPYQYMKKFVLV
CCAVLFRGVRGMVRCNWNFD
CCCRIEYHGVHGATSHSQTV
CCFSTGCHEKCSSLDDMCVF
CCGINGIKLAAANRWSPVEH
CCLFADCDLRYFSNRTFFNC
CCLTIGSKPIYHCWQLGIMA
CCMVNRGTRQVSRWIVPNWR
CCNDWR
CCRLDDIRQ
CCRSWRSYSTVVFICGFLYW
CCRVRTS
CCSGLAMAFRFYASYSGAIY
CCSSRMYLEGCPSLRLMEHI
CDSYKVYRVLNKQGWFCRGS
CDTSCWLLSTPLADWTIAFN
CELAKLVRNDSFRKDNQGYS
CELYHMNRDF
CEYAYFGMDYLLEAGSKSDY
CFFINRRTLKGLT
CFLSGWTLTVSVLLVDYRKL
CFMHPADIPSMAVVVYLCAG
CFNGRCARLYISIIQVIELS
CFYGDFSSILSRKVYDYYIR
CGCGWVLWPYKYRSDWLGGK
CGRLHDVG
CGTCSDYGYHFGCTDRGVDC
CGVYPYPWVVMFTDCKMNRW
